In patent US20150368311A1 (Sanofi, published 2015):
Non-standard residues stand in square brackets, D forms with d. No end group written: not given here. Ala(4-thiazolyl) = N[C@@H](Cc1cscn1)C(=O)O; 1Nal = N[C@@H](Cc1cccc2ccccc12)C(=O)O; Phe(2-F) = N[C@@H](Cc1ccccc1F)C(=O)O; Chg = N[C@H](C(=O)O)C1CCCCC1; Nle = CCCC[C@H](N)C(=O)O

B1: SEQ ID NO: 22 (peptide)
peptide: [Ala(4-thiazolyl)]SQGTFTSD[1Nal]SKQLESRRAQDFIEWLLATGPESGAPPPS-OH
modifications: N-terminus assumed
SMILES: CC[C@H](C)[C@H](NC(=O)[C@H](Cc1ccccc1)NC(=O)[C@H](CC(=O)O)NC(=O)[C@H](CCC(N)=O)NC(=O)[C@H](C)NC(=O)[C@H](CCCNC(=N)N)NC(=O)[C@H](CCCNC(=N)N)NC(=O)[C@H](CO)NC(=O)[C@H](CCC(=O)O)NC(=O)[C@H](CC(C)C)NC(=O)[C@H](CCC(N)=O)NC(=O)[C@H](CCCCN)NC(=O)[C@H](CO)NC(=O)[C@H](Cc1cccc2ccccc12)NC(=O)[C@H](CC(=O)O)NC(=O)[C@H](CO)NC(=O)[C@@H](NC(=O)[C@H](Cc1ccccc1)NC(=O)[C@@H](NC(=O)CNC(=O)[C@H](CCC(N)=O)NC(=O)[C@H](CO)NC(=O)[C@@H](N)Cc1cscn1)[C@@H](C)O)[C@@H](C)O)C(=O)N[C@@H](CCC(=O)O)C(=O)N[C@@H](Cc1c[nH]c2ccccc12)C(=O)N[C@@H](CC(C)C)C(=O)N[C@@H](CC(C)C)C(=O)N[C@@H](C)C(=O)N[C@H](C(=O)NCC(=O)N1CCC[C@H]1C(=O)N[C@@H](CCC(=O)O)C(=O)N[C@@H](CO)C(=O)NCC(=O)N[C@@H](C)C(=O)N1CCC[C@H]1C(=O)N1CCC[C@H]1C(=O)N1CCC[C@H]1C(=O)N[C@@H](CO)C(=O)O)[C@@H](C)O
B2: SEQ ID NO: 18 (peptide)
peptide: [Ala(4-thiazolyl)]SQGTFTSD[Phe(2-F)]SKQ[Nle]ESRRAQDFIEWLLATGPESGAPPPS-OH
modifications: N-terminus assumed
SMILES: CCCC[C@H](NC(=O)[C@H](CCC(N)=O)NC(=O)[C@H](CCCCN)NC(=O)[C@H](CO)NC(=O)[C@H](Cc1ccccc1F)NC(=O)[C@H](CC(=O)O)NC(=O)[C@H](CO)NC(=O)[C@@H](NC(=O)[C@H](Cc1ccccc1)NC(=O)[C@@H](NC(=O)CNC(=O)[C@H](CCC(N)=O)NC(=O)[C@H](CO)NC(=O)[C@@H](N)Cc1cscn1)[C@@H](C)O)[C@@H](C)O)C(=O)N[C@@H](CCC(=O)O)C(=O)N[C@@H](CO)C(=O)N[C@@H](CCCNC(=N)N)C(=O)N[C@@H](CCCNC(=N)N)C(=O)N[C@@H](C)C(=O)N[C@@H](CCC(N)=O)C(=O)N[C@@H](CC(=O)O)C(=O)N[C@@H](Cc1ccccc1)C(=O)N[C@H](C(=O)N[C@@H](CCC(=O)O)C(=O)N[C@@H](Cc1c[nH]c2ccccc12)C(=O)N[C@@H](CC(C)C)C(=O)N[C@@H](CC(C)C)C(=O)N[C@@H](C)C(=O)N[C@H](C(=O)NCC(=O)N1CCC[C@H]1C(=O)N[C@@H](CCC(=O)O)C(=O)N[C@@H](CO)C(=O)NCC(=O)N[C@@H](C)C(=O)N1CCC[C@H]1C(=O)N1CCC[C@H]1C(=O)N1CCC[C@H]1C(=O)N[C@@H](CO)C(=O)O)[C@@H](C)O)[C@@H](C)CC
B3: SEQ ID NO: 24 (peptide)
peptide: [Ala(4-thiazolyl)]SQGTFTSD[Chg]SKQ[Nle]ESRRAQEFIEWLLATGPESGAPPPS-OH
modifications: N-terminus assumed
SMILES: CCCC[C@H](NC(=O)[C@H](CCC(N)=O)NC(=O)[C@H](CCCCN)NC(=O)[C@H](CO)NC(=O)[C@@H](NC(=O)[C@H](CC(=O)O)NC(=O)[C@H](CO)NC(=O)[C@@H](NC(=O)[C@H](Cc1ccccc1)NC(=O)[C@@H](NC(=O)CNC(=O)[C@H](CCC(N)=O)NC(=O)[C@H](CO)NC(=O)[C@@H](N)Cc1cscn1)[C@@H](C)O)[C@@H](C)O)C1CCCCC1)C(=O)N[C@@H](CCC(=O)O)C(=O)N[C@@H](CO)C(=O)N[C@@H](CCCNC(=N)N)C(=O)N[C@@H](CCCNC(=N)N)C(=O)N[C@@H](C)C(=O)N[C@@H](CCC(N)=O)C(=O)N[C@@H](CCC(=O)O)C(=O)N[C@@H](Cc1ccccc1)C(=O)N[C@H](C(=O)N[C@@H](CCC(=O)O)C(=O)N[C@@H](Cc1c[nH]c2ccccc12)C(=O)N[C@@H](CC(C)C)C(=O)N[C@@H](CC(C)C)C(=O)N[C@@H](C)C(=O)N[C@H](C(=O)NCC(=O)N1CCC[C@H]1C(=O)N[C@@H](CCC(=O)O)C(=O)N[C@@H](CO)C(=O)NCC(=O)N[C@@H](C)C(=O)N1CCC[C@H]1C(=O)N1CCC[C@H]1C(=O)N1CCC[C@H]1C(=O)N[C@@H](CO)C(=O)O)[C@@H](C)O)[C@@H](C)CC
B4: SEQ ID NO: 20 (peptide)
peptide: [Ala(4-thiazolyl)]SQGTFTSD[Chg]SKQ[Nle]ESRRAQDFIEWLLATGPESGAPPPS-OH
modifications: N-terminus assumed
SMILES: CCCC[C@H](NC(=O)[C@H](CCC(N)=O)NC(=O)[C@H](CCCCN)NC(=O)[C@H](CO)NC(=O)[C@@H](NC(=O)[C@H](CC(=O)O)NC(=O)[C@H](CO)NC(=O)[C@@H](NC(=O)[C@H](Cc1ccccc1)NC(=O)[C@@H](NC(=O)CNC(=O)[C@H](CCC(N)=O)NC(=O)[C@H](CO)NC(=O)[C@@H](N)Cc1cscn1)[C@@H](C)O)[C@@H](C)O)C1CCCCC1)C(=O)N[C@@H](CCC(=O)O)C(=O)N[C@@H](CO)C(=O)N[C@@H](CCCNC(=N)N)C(=O)N[C@@H](CCCNC(=N)N)C(=O)N[C@@H](C)C(=O)N[C@@H](CCC(N)=O)C(=O)N[C@@H](CC(=O)O)C(=O)N[C@@H](Cc1ccccc1)C(=O)N[C@H](C(=O)N[C@@H](CCC(=O)O)C(=O)N[C@@H](Cc1c[nH]c2ccccc12)C(=O)N[C@@H](CC(C)C)C(=O)N[C@@H](CC(C)C)C(=O)N[C@@H](C)C(=O)N[C@H](C(=O)NCC(=O)N1CCC[C@H]1C(=O)N[C@@H](CCC(=O)O)C(=O)N[C@@H](CO)C(=O)NCC(=O)N[C@@H](C)C(=O)N1CCC[C@H]1C(=O)N1CCC[C@H]1C(=O)N1CCC[C@H]1C(=O)N[C@@H](CO)C(=O)O)[C@@H](C)O)[C@@H](C)CC
B5: SEQ ID NO: 21 (peptide)
peptide: [Ala(4-thiazolyl)]SQGTFTSD[Phe(2-F)]SKQLESRRAQDFIEWLLATGPESGAPPPS-OH
modifications: N-terminus assumed
SMILES: CC[C@H](C)[C@H](NC(=O)[C@H](Cc1ccccc1)NC(=O)[C@H](CC(=O)O)NC(=O)[C@H](CCC(N)=O)NC(=O)[C@H](C)NC(=O)[C@H](CCCNC(=N)N)NC(=O)[C@H](CCCNC(=N)N)NC(=O)[C@H](CO)NC(=O)[C@H](CCC(=O)O)NC(=O)[C@H](CC(C)C)NC(=O)[C@H](CCC(N)=O)NC(=O)[C@H](CCCCN)NC(=O)[C@H](CO)NC(=O)[C@H](Cc1ccccc1F)NC(=O)[C@H](CC(=O)O)NC(=O)[C@H](CO)NC(=O)[C@@H](NC(=O)[C@H](Cc1ccccc1)NC(=O)[C@@H](NC(=O)CNC(=O)[C@H](CCC(N)=O)NC(=O)[C@H](CO)NC(=O)[C@@H](N)Cc1cscn1)[C@@H](C)O)[C@@H](C)O)C(=O)N[C@@H](CCC(=O)O)C(=O)N[C@@H](Cc1c[nH]c2ccccc12)C(=O)N[C@@H](CC(C)C)C(=O)N[C@@H](CC(C)C)C(=O)N[C@@H](C)C(=O)N[C@H](C(=O)NCC(=O)N1CCC[C@H]1C(=O)N[C@@H](CCC(=O)O)C(=O)N[C@@H](CO)C(=O)NCC(=O)N[C@@H](C)C(=O)N1CCC[C@H]1C(=O)N1CCC[C@H]1C(=O)N1CCC[C@H]1C(=O)N[C@@H](CO)C(=O)O)[C@@H](C)O
B6: SEQ ID NO: 23 (peptide)
peptide: [Ala(4-thiazolyl)]SQGTFTSD[Chg]SKQLESRRAQDFIEWLLATGPESGAPPPS-OH
modifications: N-terminus assumed
SMILES: CC[C@H](C)[C@H](NC(=O)[C@H](Cc1ccccc1)NC(=O)[C@H](CC(=O)O)NC(=O)[C@H](CCC(N)=O)NC(=O)[C@H](C)NC(=O)[C@H](CCCNC(=N)N)NC(=O)[C@H](CCCNC(=N)N)NC(=O)[C@H](CO)NC(=O)[C@H](CCC(=O)O)NC(=O)[C@H](CC(C)C)NC(=O)[C@H](CCC(N)=O)NC(=O)[C@H](CCCCN)NC(=O)[C@H](CO)NC(=O)[C@@H](NC(=O)[C@H](CC(=O)O)NC(=O)[C@H](CO)NC(=O)[C@@H](NC(=O)[C@H](Cc1ccccc1)NC(=O)[C@@H](NC(=O)CNC(=O)[C@H](CCC(N)=O)NC(=O)[C@H](CO)NC(=O)[C@@H](N)Cc1cscn1)[C@@H](C)O)[C@@H](C)O)C1CCCCC1)C(=O)N[C@@H](CCC(=O)O)C(=O)N[C@@H](Cc1c[nH]c2ccccc12)C(=O)N[C@@H](CC(C)C)C(=O)N[C@@H](CC(C)C)C(=O)N[C@@H](C)C(=O)N[C@H](C(=O)NCC(=O)N1CCC[C@H]1C(=O)N[C@@H](CCC(=O)O)C(=O)N[C@@H](CO)C(=O)NCC(=O)N[C@@H](C)C(=O)N1CCC[C@H]1C(=O)N1CCC[C@H]1C(=O)N1CCC[C@H]1C(=O)N[C@@H](CO)C(=O)O)[C@@H](C)O
B7: SEQ ID NO: 19 (peptide)
peptide: [Ala(4-thiazolyl)]SQGTFTSD[1Nal]SKQ[Nle]ESRRAQDFIEWLLATGPESGAPPPS-OH
modifications: N-terminus assumed
SMILES: CCCC[C@H](NC(=O)[C@H](CCC(N)=O)NC(=O)[C@H](CCCCN)NC(=O)[C@H](CO)NC(=O)[C@H](Cc1cccc2ccccc12)NC(=O)[C@H](CC(=O)O)NC(=O)[C@H](CO)NC(=O)[C@@H](NC(=O)[C@H](Cc1ccccc1)NC(=O)[C@@H](NC(=O)CNC(=O)[C@H](CCC(N)=O)NC(=O)[C@H](CO)NC(=O)[C@@H](N)Cc1cscn1)[C@@H](C)O)[C@@H](C)O)C(=O)N[C@@H](CCC(=O)O)C(=O)N[C@@H](CO)C(=O)N[C@@H](CCCNC(=N)N)C(=O)N[C@@H](CCCNC(=N)N)C(=O)N[C@@H](C)C(=O)N[C@@H](CCC(N)=O)C(=O)N[C@@H](CC(=O)O)C(=O)N[C@@H](Cc1ccccc1)C(=O)N[C@H](C(=O)N[C@@H](CCC(=O)O)C(=O)N[C@@H](Cc1c[nH]c2ccccc12)C(=O)N[C@@H](CC(C)C)C(=O)N[C@@H](CC(C)C)C(=O)N[C@@H](C)C(=O)N[C@H](C(=O)NCC(=O)N1CCC[C@H]1C(=O)N[C@@H](CCC(=O)O)C(=O)N[C@@H](CO)C(=O)NCC(=O)N[C@@H](C)C(=O)N1CCC[C@H]1C(=O)N1CCC[C@H]1C(=O)N1CCC[C@H]1C(=O)N[C@@H](CO)C(=O)O)[C@@H](C)O)[C@@H](C)CC

Experiments:
human GLP-1 receptor = human GLP-1 receptor (human, UniProt P43220 24-463); test: cell-based or functional assay
human glucagon receptor = human glucagon receptor (human, UniProt P47871 26-477); test: cell-based or functional assay
Sequence of human glucagon receptor (P47871 26-477): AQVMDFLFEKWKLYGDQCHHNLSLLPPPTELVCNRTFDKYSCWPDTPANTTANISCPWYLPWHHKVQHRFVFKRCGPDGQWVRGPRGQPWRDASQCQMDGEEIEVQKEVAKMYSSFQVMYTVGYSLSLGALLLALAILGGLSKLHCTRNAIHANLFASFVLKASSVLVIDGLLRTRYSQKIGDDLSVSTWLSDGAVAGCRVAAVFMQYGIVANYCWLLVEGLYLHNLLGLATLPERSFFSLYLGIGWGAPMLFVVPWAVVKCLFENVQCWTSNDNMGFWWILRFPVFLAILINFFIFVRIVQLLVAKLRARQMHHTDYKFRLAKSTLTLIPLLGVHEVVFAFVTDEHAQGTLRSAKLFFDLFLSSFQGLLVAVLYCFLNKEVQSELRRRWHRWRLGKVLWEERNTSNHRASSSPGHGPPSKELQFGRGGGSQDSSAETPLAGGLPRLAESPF

| Binder | EC50 hGLP-1 R [pM], cAMP formation (human GLP-1 receptor) [pM] | EC50 hGLUC R [pM], cAMP formation (human glucagon receptor) [pM] |
| --- | --- | --- |
| B1 | 8570 | 1 |
| B2 | 25800 | 3.1 |
| B3 | 8310 | 0.7 |
| B4 | 38900 | 3.8 |
| B5 | 49700 | 1.4 |
| B6 | 50700 | 3.5 |
| B7 | 6640 | 0.7 |
